Two substances from paper PMC10850787 can be followed below.

Test [1] has as its target PaFtsH1-6xHis (FtsH1 of Pseudomonas aeruginosa SG17M clone C) (Pseudomonas aeruginosa SG17M). Briefly: negative-stain electron microscopy; detergent-solubilised enzyme at 0.4 mg/ml in storage buffer with 0.1% Igepal, 2% uranyl acetate; 3D reconstruction with C6 symmetry, about 22 A.
Test [2] shares this target. Briefly: SEC; analytical Superdex 200 (increase) 3.2/3.0 gel filtration column in Buffer PD (50 mM Tris-HCl pH 8.0, 80 mM NaCl, 10% glycerol, 2 mM beta-mercaptoethanol, 0.1% NP-40); native mass from molecular weight standards; hexamer plus NP-40 micelles. A general note: Size exclusion chromatography separates by hydrodynamic size, large species first.
The target in test [3] is PaFtsH2-6xHis (FtsH2 of Pseudomonas aeruginosa SG17M clone C, tLST genomic island) (Pseudomonas aeruginosa SG17M). Briefly: negative-stain electron microscopy; detergent-solubilised enzyme at 0.4 mg/ml in storage buffer with 0.1% Igepal, 2% uranyl acetate; 3D reconstruction with C6 symmetry, about 22 A.
The target is the same in test [4]. Briefly: SEC; analytical Superdex 200 (increase) 3.2/3.0 gel filtration column in Buffer PD (50 mM Tris-HCl pH 8.0, 80 mM NaCl, 10% glycerol, 2 mM beta-mercaptoethanol, 0.1% NP-40); native mass from molecular weight standards; hexamer plus NP-40 micelles.

By stoichiometry N is commonly meant a count of units in the complex or per binding partner.

On to “PaFtsH1-6xHis (FtsH1 of Pseudomonas aeruginosa SG17M clone C) (enzyme)”, for which the stoichiometry N in test [1] and in test [2] was 6 throughout.
Turning to “PaFtsH2-6xHis (FtsH2 of Pseudomonas aeruginosa SG17M clone C, tLST genomic island) (enzyme)”, the stoichiometry N in test [3] and in test [4] was 6 in each case.
